# According to paper PMC11480844 (2024):
# B1: H2-Kb / Ed21 (parent complex)
# chain 1: AQSVTQPDARVTVSEGASLQLRCKYSYFGTPYLFWYVQYPRQGLQLLLKYYPGDPVVQGVNGFEAEFSKSNSSFHLRKASVHWSDWAVYFCAVSMSGGYKVVFGSGTRLLVSP
# chain 2: DSGVVQSPRHIIKEKGGRSVLTCIPISGHSNVVWYQQTLGKELKFLIQHYEKVERDKGFLPSRFSVQQFDDYHSEMNMSALELEDSAMYFCASSPRQTDYTFGSGTRLLVI
# chain 3: not shown
# chain 4: IQKTPQIQVYSRHPPENGKPNILNCYVTQFHPPHIEIQMLKNGKKIPKVEMSDMSFSKDWSFYILAHTEFTPTETDTYACRVKHDSMAEPKTVYWDRDM
# chain 5: SIINFEKL
# B2: H2-Kb / Ed5 (parent complex)
# chain 1: GDSVTQTEGPVTVSESESLIINCTYSATSIAYPNLFWYVRYPGEGLQLLLKVITAGQKGSSRGFEATYNKETTSFHLQKASVQESDSAVYYCALGSYNQGKLIFGQGTKLSIKP
# chain 2: DTTVKQNPRYKLARVGKPVNLICSQTMNHDTMYWYQKKPNQAPKLLLFYYDKILNREADTFEKFQSSRPNNSFCSLYIGSAGLEYSAMYLCASSRRLGASQNTLYFGAGTRLSVL
# chain 3: not shown
# chain 4: B1 chain 4
# chain 5: SIINFEKL
# Variants of: B1
# Experiment: % of reporter cells activated (NFAT-GFP), raw
# Note: test concentration or dose not given here.
row,Variant,ratio to parent
1,chain 5 I2A,1.04
2,chain 5 I2M,0.976
3,chain 5 I2T,1.01
4,chain 5 I2H,0.926
5,chain 5 S1D,0.911
6,chain 5 S1W,0.616
7,chain 5 S1H,0.979
8,chain 5 S1G,0.933
9,chain 5 S1V,0.9
10,chain 5 S1Y,0.97
11,chain 5 S1E,0.93
12,chain 5 E6R,0.936
13,chain 5 E6F,0.226
14,chain 5 F5E,0.856
15,chain 5 F5D,0.905
16,chain 5 F5Y,1.05
17,chain 5 F5M,0.981
18,chain 5 F5V,0.909

row,Variant,ratio to parent
1,chain 5 K7Y,0.745
2,chain 5 K7R,1.02
3,chain 5 K7D,0.141
4,chain 5 K7C,0.374
5,chain 5 K7S,0.785
6,chain 5 L8Q,0.894
7,chain 5 L8A,0.819
8,chain 5 L8W,0.734
9,chain 5 L8R,0.997
10,chain 5 L8P,0.996
11,chain 5 L8D,0.785
12,chain 5 N4G,0.182
13,chain 5 I3H,1
14,chain 5 I3P,0.927
15,chain 5 I3T,0.952
16,chain 5 I3L,1.03
17,chain 5 I3C,0.989
18,chain 5 I3Y,0.966

# Results, then the variant that gave them:
row,ratio to parent,Variant
1,0.995,chain 5 I2C
2,1.01,chain 5 I2S
3,0.861,chain 5 I2W
4,0.814,chain 5 I2Y
5,0.924,chain 5 I2D
6,0.983,chain 5 S1Q
7,0.793,chain 5 S1L
8,0.785,chain 5 S1R
9,0.745,chain 5 S1I
10,0.604,chain 5 S1C
11,0.808,chain 5 S1P
12,0.0831,chain 5 E6W
13,0.0493,chain 5 E6I
14,0.0832,chain 5 E6C
15,0.554,chain 5 E6P
16,0.46,chain 5 E6T

row,ratio to parent,Variant
1,0.949,chain 5 E6K
2,1.03,chain 5 F5P
3,1.05,chain 5 F5L
4,0.667,chain 5 K7P
5,0.261,chain 5 K7F
6,0.717,chain 5 K7W
7,0.78,chain 5 L8S
8,0.00791,chain 5 N4M
9,0.0248,chain 5 N4P
10,0.0259,chain 5 N4V
11,0.015,chain 5 N4Q
12,0.924,chain 5 I3E
13,0.869,chain 5 I3W
14,0.851,chain 5 I3K
15,0.872,chain 5 I3V

# Variants of: B2
# Experiment: % of reporter cells activated (NFAT-GFP), raw
row,Variant,ratio to parent
1,chain 5 L8D,0.747
2,chain 5 L8N,0.753
3,chain 5 L8F,0.694
4,chain 5 L8V,0.546
5,chain 5 L8Y,0.848
6,chain 5 L8C,0.929
7,chain 5 L8P,0.826
8,chain 5 L8I,0.758
9,chain 5 E6G,0.939
10,chain 5 E6Y,0.633
11,chain 5 E6W,0.54
12,chain 5 E6M,0.443
13,chain 5 I3E,0.287
14,chain 5 I3C,0.673
15,chain 5 I3D,0.436
16,chain 5 I3P,0.36
17,chain 5 I3S,0.329
18,chain 5 I3Y,0.0245
19,chain 5 I3T,0.512
20,chain 5 K7G,0.658
21,chain 5 K7R,0.853

row,Variant,ratio to parent
1,chain 5 K7P,0.728
2,chain 5 K7C,0.686
3,chain 5 K7Q,0.648
4,chain 5 K7V,0.62
5,chain 5 S1A,0.322
6,chain 5 S1I,0.00825
7,chain 5 I2M,0.917
8,chain 5 I2K,0.798
9,chain 5 I2C,0.958
10,chain 5 I2S,0.989
11,chain 5 I2G,0.875
12,chain 5 I2P,1.04
13,chain 5 I2Y,0.642
14,chain 5 F5D,0.92
15,chain 5 F5L,0.996
16,chain 5 F5T,0.887
17,chain 5 F5G,0.698
18,chain 5 F5N,0.855
19,chain 5 F5C,1.04
20,chain 5 N4W,0.0358

# Further lines, results first:
row,ratio to parent,Variant
1,0.671,chain 5 L8T
2,0.711,chain 5 L8A
3,0.498,chain 5 E6N
4,0.165,chain 5 E6L
5,0.622,chain 5 E6T
6,0.941,chain 5 E6D
7,0.0689,chain 5 E6R
8,0.506,chain 5 E6F
9,0.554,chain 5 E6H
10,0.0887,chain 5 I3F
11,0.897,chain 5 I3L
12,0.661,chain 5 I3V
13,0.682,chain 5 I3K
14,0.164,chain 5 I3N
15,0.723,chain 5 I3M
16,0.162,chain 5 I3Q
17,0.064,chain 5 I3R
18,0.372,chain 5 I3W
19,0.605,chain 5 K7S
20,0.728,chain 5 K7L
21,0.602,chain 5 K7T

row,ratio to parent,Variant
1,0.65,chain 5 K7I
2,0.543,chain 5 K7W
3,0.491,chain 5 S1G
4,0.305,chain 5 S1N
5,0.689,chain 5 S1Y
6,0.685,chain 5 S1K
7,0.559,chain 5 S1H
8,0.0691,chain 5 S1F
9,0.126,chain 5 S1V
10,0.711,chain 5 I2Q
11,1.01,chain 5 I2A
12,0.974,chain 5 I2L
13,0.852,chain 5 I2E
14,0.749,chain 5 I2N
15,0.98,chain 5 F5P
16,0.951,chain 5 F5Q
17,0.00113,chain 5 N4M
18,0.00458,chain 5 N4Q
19,0.11,chain 5 N4H
20,0.0112,chain 5 N4F
21,0.0109,chain 5 N4V
